Experimental findings from US20130236458A1 (AbbVie / Abbott, published 2013) are described below.

Changes are numbered by the printed parent chain.

For assay [1], the target named is T1, Recombinant Human IL-13 (human, UniProt P35225 35-146, limits assumed).
T1 construct: bought reagent
Put plainly: SPR (Biacore). The procedure:
(§1) The BIACORE assay (Biacore, Inc, Piscataway, N.J.) determined the affinity of antibodies or DVD-Ig with kinetic measurements of on-rate and off-rate constants. Binding of antibodies or DVD-Ig proteins to a target antigen (for example, a purified recombinant target antigen) was determined by surface plasmon resonance-based measurements with a Biacore®1000 or 3000 instrument (Biacore® AB, Uppsala, Sweden) using running HBS-EP (10 mM HEPES [pH 7.4], 150 mM NaCl, 3 mM EDTA, and 0.005% surfactant P20) at 25° C. All chemicals were obtained from Biacore® AB (Uppsala, Sweden) or otherwise from a different source as described in the text. For example, approximately 5000 RU of goat anti-mouse IgG, (Fcγ), fragment specific polyclonal antibody (Pierce Biotechnology Inc, Rockford, Ill.) diluted in 10 mM sodium acetate (pH 4.5) was directly immobilized across a CM5 research grade biosensor chip using a standard amine coupling kit according to manufacturer's instructions and procedures at 25 μg/ml. Unreacted moieties on the biosensor surface were blocked with ethanolamine. Modified carboxymethyl dextran surface in flowcell 2 and 4 was used as a reaction surface. Unmodified carboxymethyl dextran without goat anti-mouse IgG in flow cell 1 and 3 was used as the reference surface. For kinetic analysis, rate equations derived from the 1:1 Langmuir binding model were fitted simultaneously to association and dissociation phases of all eight injections (using global fit analysis) with the use of Biaevaluation 4.0.1 software. Purified antibodies or DVD-Ig proteins were diluted in HEPES-buffered saline for capture across goat anti-mouse IgG specific reaction surfaces. Antibodies or DVD-Ig proteins to be captured as a ligand (25 μg/ml) were injected over reaction matrices at a flow rate of 5 μl/minute. The association and dissociation rate constants, kₒₙ (M⁻¹s⁻¹) and koff (s⁻¹) were determined under a continuous flow rate of 25 μl/minute. Rate constants were derived by making kinetic binding measurements at different antigen concentrations ranging from 10-200 nM. The equilibrium dissociation constant (M) of the reaction between antibodies or DVD-Ig proteins and the target antigen was then calculated from the kinetic rate constants by the following formula: KD=koff/kₒₙ. Binding was recorded as a function of time and kinetic rate constants were calculated.
For orientation: SPR reads the build-up and loss of mass on a sensor chip optically.

Assay [2] has as its target T1, Recombinant Human IL-13. Put plainly: cell-based or functional assay.
Assay [3] addresses T2, Recombinant Human IL-17 (human, UniProt Q16552 20-155, limits assumed).
T2 construct: bought reagent; also called IL-17A
T2 sequence (looked up): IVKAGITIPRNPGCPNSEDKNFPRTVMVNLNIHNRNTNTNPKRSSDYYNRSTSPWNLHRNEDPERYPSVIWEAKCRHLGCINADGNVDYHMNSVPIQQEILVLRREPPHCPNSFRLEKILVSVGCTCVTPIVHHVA
Put plainly: SPR (Biacore). The protocol: as §1

The target of assay [4] is T2, Recombinant Human IL-17. Put plainly: cell-based or functional assay.

T1 sequence (P35225 35-146 limits assumed): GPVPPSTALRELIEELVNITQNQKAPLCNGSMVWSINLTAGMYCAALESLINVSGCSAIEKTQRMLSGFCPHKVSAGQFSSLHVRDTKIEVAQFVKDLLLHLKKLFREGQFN

B1: AB397 (antibody, V domains shown)
VH: EVTLRESGPGLVKPTQTLTLTCTLYGFSLSTSDMGVDWIRQPPGKGLEWLAHIWWDDVKRYNPALKSRLTISKDTSKNQVVLKLTSVDPVDTATYYCARTVSSGYIYYAMDYWGQGTLVTVSS
VL: DIQMTQSPSSLSASVGDRVTISCRASQDIRNYLNWYQQKPGKAPKLLIFYTSKLHSGVPSRFSGSGSGTDYTLTISSLQPEDIATYYCQQGLTPPLTFGGGTKVEIKR
notes: parent antibody; also called AB397VH
For the molecule B1, in the assay with Recombinant Human IL-13 [1], the Kd – broadly, the concentration at which binding is half-saturated – is 0.13 nM; the koff (as a rule, the rate constant with which the complex falls apart) stood at 0.00012 s⁻¹; the kon (in general, the rate constant with which the complex forms) was 920000 M⁻¹ s⁻¹. The “IL13 Neutralization Assay IC50 (TARC, A549 cells)” value with Recombinant Human IL-13 [2] is 0.033 nM.

B2: AB273 (antibody, V domains shown)
VH: EVQLVQSGAEVKKPGSSVKVSCKASGYTFTDYEIHWVRQAPGQGLEWMGVNDPESGGTFYNQKFDGRVTLTADESTSTAYMELSSLRSEDTAVYYCTRYSKWDSFDGMDYWGQGTTVTVSS
VL: DIQMTQSPSSLSASVGDRVTITCRASSGIISYIDWFQQKPGKAPKRLIYATFDLASGVPSRFSGSGSGTDYTLTISSLQPEDFATYYCRQVGSYPETFGQGTKLEIKR
notes: parent antibody; also called AB273VH
Take B2: in the assay with Recombinant Human IL-17 [3], the Kd is less than 0.0005 nM, the koff was less than 1e-06 s⁻¹ and the kon is 2e+06 M⁻¹ s⁻¹. In addition, the “IL17 Neutralization Assay IC50 (IL-6, HS27 cells)” value with Recombinant Human IL-17 [4] was 0.0198 nM.

B3: DVD2154 (bispecific antibody)
VH: EVTLRESGPGLVKPTQTLTLTCTLYGFSLSTSDMGVDWIRQPPGKGLEWLAHIWWDDVKRYNPALKSRLTISKDTSKNQVVLKLTSVDPVDTATYYCARTVSSGYIYYAMDYWGQGTLVTVSSASTKGPEVQLVQSGAEVKKPGSSVKVSCKASGGSFGGYGIGWVRQAPGQGLEWMGGITPFFGFADYAQKFQGRVTITADESTTTAYMELSGLTSDDTAVYYCARDPNEFWNGYYSTHDFDSWGQGTTVTVSS
VL: DIQMTQSPSSLSASVGDRVTISCRASQDIRNYLNWYQQKPGKAPKLLIFYTSKLHSGVPSRFSGSGSGTDYTLTISSLQPEDIATYYCQQGLTPPLTFGGGTKVEIKRTVAAPEIVLTQSPDFQSVTPKEKVTITCRASQDIGSELHWYQQKPDQPPKLLIKYASHSTSGVPSRFSGSGSGTDFTLTINGLEAEDAGTYYCHQTDSLPYTFGPGTKVDIKR
Regarding B3, the “C-Terminal VD IL17 Neutralization Assay IC50” value with Recombinant Human IL-17 [4] worked out at 0.351 nM. The “N-Terminal VD IL13 Neutralization Assay IC50” value with Recombinant Human IL-13 [2] was found to be 0.43 nM.

B4: DVD2160 (bispecific antibody)
VH: EVTLRESGPGLVKPTQTLTLTCTLYGFSLSTSDMGVDWIRQPPGKGLEWLAHIWWDDVKRYNPALKSRLTISKDTSKNQVVLKLTSVDPVDTATYYCARTVSSGYIYYAMDYWGQGTLVTVSSASTKGPEVQLVQSGAEVKKPGESVKISCKASGGSFRSYGISWVRQAPGQGLEWMGGITHFFGITDYAQKFQGRVTITADESTTTAYMELSGLTSDDTAVYYCAREPNDFWNGYYDTHDFDSWGQGTTVTVSS
VL: B3 VL with D141N, P156S, T168I, G197A, T204S, S206T, Y209H, P213Q
On to B4, for which the “C-Terminal VD IL17 Neutralization Assay IC50” value in the assay with Recombinant Human IL-17 [4] came out at 0.703 nM. In addition, the “N-Terminal VD IL13 Neutralization Assay IC50” value with Recombinant Human IL-13 [2] amounted to 0.178 nM.

B5: DVD2156 (bispecific antibody)
VH: B3 VH
VL: DIQMTQSPSSLSASVGDRVTISCRASQDIRNYLNWYQQKPGKAPKLLIFYTSKLHSGVPSRFSGSGSGTDYTLTISSLQPEDIATYYCQQGLTPPLTFGGGTKVEIKRTVAAPSVFIFPPEIVLTQSPDFQSVTPKEKVTITCRASQDIGSELHWYQQKPDQPPKLLIKYASHSTSGVPSRFSGSGSGTDFTLTINGLEAEDAGTYYCHQTDSLPYTFGPGTKVDIKR
Consider B5, for which the “C-Terminal VD IL17 Neutralization Assay IC50” value with Recombinant Human IL-17 [4] amounted to 0.0155 nM. In addition, in the assay with Recombinant Human IL-13 [2], the “N-Terminal VD IL13 Neutralization Assay IC50” value is 0.129 nM.

B6: AB398 (antibody, V domains shown)
VH: EVQLVQSGAEVKKPGASVKVSCKASGYTFTTYGVSWVRQAPGQGLEWMGEIYPGNYNTYYNEKFRGRVTMTTDTSTSTAYMELRSLRSDDTAVYYCARWRTSYFSDYGYFDYWGQGTTVTVSS
VL: DVVMTQSPLSLPVTLGQPASISCRSSQSLVHSHGNTYLHWYQQRPGQSPRLLIYTVSNRFSGVPDRFSGSGSGTDFTLKISRVEAEDVGVYYCSQSTHVPYTFGGGTKVEIKR
notes: parent antibody; also called AB398VH
Regarding B6, in the assay with Recombinant Human IL-13 [1], the Kd was found to be 0.045 nM, the koff amounted to 2.8e-05 s⁻¹ and the kon came to 630000 M⁻¹ s⁻¹. Moreover, the “IL13 Neutralization Assay IC50 (TARC, A549 cells)” value in the assay with Recombinant Human IL-13 [2] was determined as 0.082 nM.

B7: DVD2163 (bispecific antibody)
VH: EVQLVQSGAEVKKPGESVKISCKASGGSFRSYGISWVRQAPGQGLEWMGGITHFFGITDYAQKFQGRVTITADESTTTAYMELSGLTSDDTAVYYCAREPNDFWNGYYDTHDFDSWGQGTTVTVSSASTKGPEVTLRESGPGLVKPTQTLTLTCTLYGFSLSTSDMGVDWIRQPPGKGLEWLAHIWWDDVKRYNPALKSRLTISKDTSKNQVVLKLTSVDPVDTATYYCARTVSSGYIYYAMDYWGQGTLVTVSS
VL: EIVLTQSPDFQSVTPKEKVTITCRASQNIGSELHWYQQKPDQSPKLLIKYASHSISGVPSRFSGSGSGTDFTLTINGLEAEDAATYYCHQSDTLPHTFGQGTKVDIKRTVAAPSVFIFPPDIQMTQSPSSLSASVGDRVTISCRASQDIRNYLNWYQQKPGKAPKLLIFYTSKLHSGVPSRFSGSGSGTDYTLTISSLQPEDIATYYCQQGLTPPLTFGGGTKVEIKR
On to B7, for which the “N-Terminal VD IL17 Neutralization Assay IC50” value with Recombinant Human IL-17 [4] was found to be 0.0151 nM. Besides, the “C-Terminal VD IL13 Neutralization Assay IC50” value with Recombinant Human IL-13 [2] was 0.195 nM.

B8: DVD2162 (bispecific antibody)
VH: B4 VH
VL: B5 VL with D148N, P163S, T175I, G204A, T211S, S213T, Y216H, P220Q
Take B8: the “C-Terminal VD IL17 Neutralization Assay IC50” value with Recombinant Human IL-17 [4] was found to be 0.0213 nM. Besides, the “N-Terminal VD IL13 Neutralization Assay IC50” value in the assay with Recombinant Human IL-13 [2] was determined as 0.126 nM.

B9: AB274 (antibody, V domains shown)
VH: EVQLVQSGAEVKKPGSSVKVSCKASGGSFGGYGIGWVRQAPGQGLEWMGGITPFFGFADYAQKFQGRVTITADESTTTAYMELSGLTSDDTAVYYCARDPNEFWNGYYSTHDFDSWGQGTTVTVSS
VL: EIVLTQSPDFQSVTPKEKVTITCRASQDIGSELHWYQQKPDQPPKLLIKYASHSTSGVPSRFSGSGSGTDFTLTINGLEAEDAGTYYCHQTDSLPYTFGPGTKVDIKR
notes: parent antibody; also called AB274VH
Regarding B9, in the assay with Recombinant Human IL-17 [3], the Kd came out at 0.0074 nM, the koff was determined as 8.2e-06 s⁻¹ and the kon came out at 1.1e+06 M⁻¹ s⁻¹. Also, the “IL17 Neutralization Assay IC50 (IL-6, HS27 cells)” value with Recombinant Human IL-17 [4] is 0.003 nM.

B10: AB275 (antibody, V domains shown)
VH: EVQLVQSGAEVKKPGESVKISCKASGGSFRSYGISWVRQAPGQGLEWMGGITHFFGITDYAQKFQGRVTITADESTTTAYMELSGLTSDDTAVYYCAREPNDFWNGYYDTHDFDSWGQGTTVTVSS
VL: B9 VL with D28N, P43S, T55I, G84A, T91S, S93T, Y96H, P100Q
notes: parent antibody; also called AB275VH
In the case of B10, in the assay with Recombinant Human IL-17 [3], the Kd is 0.034 nM, the koff is 6.5e-05 s⁻¹ and the kon was found to be 1.9e+06 M⁻¹ s⁻¹. Moreover, the “IL17 Neutralization Assay IC50 (IL-6, HS27 cells)” value in the assay with Recombinant Human IL-17 [4] is 0.0052 nM.

B11: AB399 (antibody, V domains shown)
VH: EVQLVQSGAEVKKPGASVKVSCKASGYTFTSYWMHWVRQAPGQGLEWIGNINPKGGSNIYNEKFQGRVTMTRDTSISTAYMELSRLRSDDTAVYYCARLDYFGDSFDLWGQGTTVTVSS
VL: DIQMTQSPSSLSASVGDRVTITCRASQGIRNYLNWYQQKPGKAPKLLIYYASNLEVGVPSRFSGSGSGTDYTLTISSLQPEDFATYYCQQDNRFPYTFGGGTKVEIKR
notes: parent antibody; also called AB399VH
Consider B11, for which, in the assay with Recombinant Human IL-13 [1], the Kd was found to be 0.019 nM, the koff stood at 6.4e-05 s⁻¹ and the kon worked out at 3.4e+06 M⁻¹ s⁻¹. Further, the “IL13 Neutralization Assay IC50 (TARC, A549 cells)” value with Recombinant Human IL-13 [2] was determined as 0.043 nM.
